Ends that are not written are not given here.
B1: FAT domain of Focal Adhesion Kinase, wild type (hFAK904-1052) (domain or fragment, human, UniProt Q05397 904-1052, looked up)
chain: LQPQEISPPPTANLDRSNDKVYENVTGLVKAVIEMSSKIQPAPPEEYVPMVKEVGLALRTLLATVDETIPLLPASTHREIEMAQKLLNSDLGELINKMKLAQQYVMTSLQQEYKKQMLTAAHALAVDAKNLLDVIDQARLKMLGQTRPH
notes: focal adhesion kinase (FAK), human, FAT domain, residues 904-1052 (hFAK904-1052); also called FAT-WT; source: E. coli BL21(DE3), purified (His-Trap, TEV digest, Source 15Q, Ni-NTA flow-through, Superdex200); not shown: His6, N-terminal, cleaved

Key:
[1] = biological target: T1, vinculin tail domain (Vin-T, hVinculin891-1066) (Homo sapiens, UniProt P18206); experiment: Fluorescence anisotropy binding to vinculin tail domain; settings: 25 nM FITC labelled peptide, pH7.5, 22 °C, one-site binding model, 4 measurements, read-out: Apparent KD for vinculin tail domain (Vin-T)
T1 construct: Vin-FL (hVinculin1-1066) and Vin-T (hVinculin891-1066) were ordered from GenScript; 6xHis (TEV cleavable) (N, cleaved yes); made in house; host or cells: E. coli BL21(DE3)
Text: (§1) Expression plasmids for FAT (hFAK904-1052 WT and mutants H14, H23 and H14-23), Vin-FL (hVinculin1-1066) and Vin-T (hVinculin891-1066) were ordered from GenScript in the pET28(+) vector, adding a TEV cleavable N-terminal 6xHis tag to the expressed proteins. Mutant FAT-H14 contains the mutations I936A, H1025A, K1032A; FAT-H23 contains the mutations K955A, R962A, I998A and FAT-14-23 contains the combined mutations I936A, K955A, R962A, I998A, H1025A, K1032A. All plasmids were introduced into E.coli strain BL21(DE3) for expression. Cells were grown in LB media, induced with 1 mM IPTG at an OD (600 nm) of 0.6 and grown over night at 20 °C. […]
(§2) Binding curves were determined in a total of 20 µl in black 384 well plates, by titrating protein concentrations (typically up to 50 µM) at a fixed concentration of 25 nM FITC labelled LD peptides (Apeptide Co. Ltd) in 20 mM Tris pH7.5, 150 mM NaCl, 1mM TCEP. Anisotropy measurements were preformed at 22 °C on a Spark® Multimode microplate reader (Tecan) with polarizers, at an excitation wavelength of 485 nm and an emission wavelength of 535 nm (20 nm bandwidth). KD values were extracted by fitting a one-site binding model using the GraphPad Prism software, using the equation: Y = Bmax*X/(KD + X), where Y is the measured anisotropy, X the protein concentration and Bmax the maximal anisotropy value at binding saturation.

[2] = biological target: T2, full-length vinculin (Vin-FL, hVinculin1-1066) (Homo sapiens, UniProt P18206); experiment: Fluorescence anisotropy binding to full-length vinculin; settings: 25 nM FITC labelled peptide, pH7.5, 22 °C, one-site binding model, 4 measurements, read-out: Apparent KD for full-length vinculin (Vin-FL)
T2 construct: Vin-FL (hVinculin1-1066) and Vin-T (hVinculin891-1066) were ordered from GenScript; 6xHis (TEV cleavable) (N, cleaved yes); made in house; host or cells: E. coli BL21(DE3)
Text: as §1, §2

[3] = biological target: T3, FAT domain of FAK (hFAK904-1052 WT) (Homo sapiens, UniProt Q05397); experiment: Fluorescence anisotropy binding of FITC LD peptides to FAT-WT
T3 construct: Expression plasmids for FAT (hFAK904-1052 WT and mutants H14, H23 and H14-23); 6xHis (TEV cleavable) (N, cleaved yes); made in house; host or cells: E. coli BL21(DE3)
T3 sequence (Q05397 904-1052): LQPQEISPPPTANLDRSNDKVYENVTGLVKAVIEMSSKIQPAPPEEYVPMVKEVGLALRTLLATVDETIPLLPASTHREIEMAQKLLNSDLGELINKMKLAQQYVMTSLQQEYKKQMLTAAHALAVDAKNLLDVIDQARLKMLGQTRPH
Text: Expression plasmids for FAT (hFAK904-1052 WT and mutants H14, H23 and H14-23), Vin-FL (hVinculin1-1066) and Vin-T (hVinculin891-1066) were ordered from GenScript in the pET28(+) vector, adding a TEV cleavable N-terminal 6xHis tag to the expressed proteins. Mutant FAT-H14 contains the mutations I936A, H1025A, K1032A; FAT-H23 contains the mutations K955A, R962A, I998A and FAT-14-23 contains the combined mutations I936A, K955A, R962A, I998A, H1025A, K1032A. All plasmids were introduced into E.coli strain BL21(DE3) for expression. Cells were grown in LB media, induced with 1 mM IPTG at an OD (600 nm) of 0.6 and grown over night at 20 °C. Cells were pelleted at 6000 rpm and resuspended in 20 mM Tris pH8, 200 mM NaCl, 5% Glycerol, 10 mM imidazole, 2mM TCEP, 1mM PMSF supplemented with cOmplete protein inhibitor cocktail (Roche). Cells were lysed by sonication and insoluble components removed by centrifugation at 40 K for 1 h at 4 °C. Soluble lysates were cleared through 0.45 μm filters and loaded onto His-Trap affinity columns (Cytiva), washed with step gradients up to 30 mM imidazole and eluted with a gradient up to 500 mM imidazole. Peak-fractions were digested over night with TEV protease (molar ratio ~ 1: 20) at 4 °C. Proteins were diluted to 50 mM NaCl and loaded onto a Source 15Q column, washed with 20 mM Tris pH8, 50 mM NaCl, 5% Glycerol, 1mM TCEP and eluted with a gradient up to 1 M NaCl. Peak fractions were mixed with 1 ml of Ni-NTA beads to remove TEV and uncleaved protein, adding 10 mM imidazole to prevent non-specific binding. The flow-through was concentrated, loaded onto a Superdex200 16/60 column and eluted in 20 mM Tris pH8, 200 mM NaCl, 5% Glycerol, 2mM TCEP. Peak fractions were concentrated, aliquots flash frozen in LN2 and stored at -80 °C.
as §2

paxillin LD2 peptide = experiment: fluorescence polarisation; fluorescence anisotropy; protein titrated (typically up to 50 µM) at 25 nM FITC labelled LD peptide; 20 mM Tris pH7.5, 150 mM NaCl, 1mM TCEP; 22 °C; one-site binding model; apparent KD
[4] = biological target: vinculin tail domain (hVinculin891-1066) (human) (UniProt P18206); experiment: AUC; sedimentation velocity; Vin-T at 100 µM; 20 °C, 48,000 rpm; monomer to dimer
paxillin LD1 peptide = experiment: fluorescence polarisation; fluorescence anisotropy; protein titrated (typically up to 50 µM) at 25 nM FITC labelled LD peptide; 20 mM Tris pH7.5, 150 mM NaCl, 1mM TCEP; 22 °C; one-site binding model; apparent KD
[5] = biological target: T4, FAT-H14 (hFAK904-1052 with I936A, H1025A, K1032A) (human, UniProt Q05397 904-1052, I936A | H1025A | K1032A); experiment: FP
T4 sequence: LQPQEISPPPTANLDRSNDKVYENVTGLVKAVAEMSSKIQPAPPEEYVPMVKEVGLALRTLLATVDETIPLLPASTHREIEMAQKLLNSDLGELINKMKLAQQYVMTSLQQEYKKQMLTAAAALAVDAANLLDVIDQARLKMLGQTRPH

[6] = biological target: T5, FAT-H23 (hFAK904-1052 with K955A, R962A, I998A) (human, UniProt Q05397 904-1052, K955A | R962A | I998A); experiment: FP
T5 sequence: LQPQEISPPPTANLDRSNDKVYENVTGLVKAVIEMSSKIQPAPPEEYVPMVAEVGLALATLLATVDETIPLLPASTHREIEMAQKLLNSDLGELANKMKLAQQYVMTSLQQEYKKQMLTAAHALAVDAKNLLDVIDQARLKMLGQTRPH

[7] = biological target: T6, FAT-Y925F phosphodeficient mutant (human, UniProt Q05397 904-1052, Y925F); experiment: FP
T6 sequence: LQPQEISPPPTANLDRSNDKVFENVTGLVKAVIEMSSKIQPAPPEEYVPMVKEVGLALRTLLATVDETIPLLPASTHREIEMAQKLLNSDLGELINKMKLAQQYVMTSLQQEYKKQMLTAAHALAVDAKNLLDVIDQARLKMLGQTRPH

[8] = biological target: T7, FAT-Y925E phospho-mimetic mutant (human, UniProt Q05397 904-1052, Y925E); experiment: FP
T7 sequence: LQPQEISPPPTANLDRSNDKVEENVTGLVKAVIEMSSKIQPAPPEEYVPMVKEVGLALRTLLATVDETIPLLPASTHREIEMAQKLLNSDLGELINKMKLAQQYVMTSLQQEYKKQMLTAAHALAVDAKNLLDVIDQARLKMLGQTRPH

[9] = biological target: T8, FAT domain of Focal Adhesion Kinase, wild type (hFAK904-1052) (human, UniProt Q05397 904-1052); experiment: FP
T8 chain: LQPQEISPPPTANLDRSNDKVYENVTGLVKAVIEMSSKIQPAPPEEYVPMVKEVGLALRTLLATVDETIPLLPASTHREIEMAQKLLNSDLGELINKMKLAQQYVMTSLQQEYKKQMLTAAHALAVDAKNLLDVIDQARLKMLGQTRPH

[10] = biological target: T9, paxillin LD2/4 peptide (LD2 and LD4 motifs separated by a designed linker) (FITC label (fluorescence anisotropy)); experiment: AUC; sedimentation velocity; FAT and Vin-T at 30 µM with 10 µM LD2/4 peptide; 20 mM Tris pH 7.5, 200 mM NaCl, 5% Glycerol, 1 mM TCEP; 20 °C, 58,000 rpm; absorbance at 280 nm; settings: both partners purified
T9 chain: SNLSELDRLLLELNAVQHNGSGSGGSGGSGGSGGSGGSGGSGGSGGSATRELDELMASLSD

[11] = biological target: B1; experiment: fluorescence polarisation; fluorescence anisotropy; protein titrated (typically up to 50 µM) at 25 nM FITC labelled LD peptide; 20 mM Tris pH7.5, 150 mM NaCl, 1mM TCEP; 22 °C; one-site binding model; apparent KD; settings: both partners purified

T1 sequence (P18206 891-1066 isoform P18206-2): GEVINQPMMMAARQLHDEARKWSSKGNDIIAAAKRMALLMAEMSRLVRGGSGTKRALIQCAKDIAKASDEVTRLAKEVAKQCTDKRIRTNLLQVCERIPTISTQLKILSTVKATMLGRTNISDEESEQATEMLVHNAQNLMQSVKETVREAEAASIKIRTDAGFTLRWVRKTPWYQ
T2 sequence (P18206 1-1066 isoform P18206-2): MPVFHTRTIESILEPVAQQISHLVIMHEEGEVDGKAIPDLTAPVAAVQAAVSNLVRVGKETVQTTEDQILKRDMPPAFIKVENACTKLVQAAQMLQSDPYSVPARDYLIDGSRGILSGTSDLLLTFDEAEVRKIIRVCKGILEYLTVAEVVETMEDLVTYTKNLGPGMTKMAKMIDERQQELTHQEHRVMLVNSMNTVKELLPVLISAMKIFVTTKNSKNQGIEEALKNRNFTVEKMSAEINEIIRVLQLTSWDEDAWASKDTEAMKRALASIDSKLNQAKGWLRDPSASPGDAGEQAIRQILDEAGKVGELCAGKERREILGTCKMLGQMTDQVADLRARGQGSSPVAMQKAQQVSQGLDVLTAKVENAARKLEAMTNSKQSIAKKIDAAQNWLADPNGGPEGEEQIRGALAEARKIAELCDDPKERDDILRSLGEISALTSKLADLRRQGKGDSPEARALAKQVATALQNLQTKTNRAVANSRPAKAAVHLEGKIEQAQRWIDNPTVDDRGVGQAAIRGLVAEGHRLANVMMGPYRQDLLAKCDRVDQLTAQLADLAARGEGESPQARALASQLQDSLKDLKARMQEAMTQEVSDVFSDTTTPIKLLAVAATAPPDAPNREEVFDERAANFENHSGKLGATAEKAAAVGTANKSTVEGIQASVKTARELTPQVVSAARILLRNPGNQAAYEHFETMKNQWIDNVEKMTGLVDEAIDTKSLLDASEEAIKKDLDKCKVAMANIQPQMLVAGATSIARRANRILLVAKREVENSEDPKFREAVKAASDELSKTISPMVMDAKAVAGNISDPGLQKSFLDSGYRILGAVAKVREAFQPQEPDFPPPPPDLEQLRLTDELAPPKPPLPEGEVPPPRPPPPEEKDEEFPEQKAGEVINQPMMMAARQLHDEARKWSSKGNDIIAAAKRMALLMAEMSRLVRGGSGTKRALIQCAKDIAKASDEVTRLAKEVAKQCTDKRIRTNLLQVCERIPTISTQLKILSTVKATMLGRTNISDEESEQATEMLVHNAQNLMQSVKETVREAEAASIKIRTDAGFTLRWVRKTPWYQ

Molecule: CC(C)C[C@H](NC(=O)[C@H](CCC(=O)O)NC(=O)[C@H](CC(C)C)NC(=O)[C@H](CC(C)C)NC(=O)[C@H](CC(C)C)NC(=O)[C@H](CCCNC(=N)N)NC(=O)[C@H](CC(=O)O)NC(=O)[C@H](CC(C)C)NC(=O)[C@H](CCC(=O)O)NC(=O)[C@H](CO)NC(=O)[C@H](CC(C)C)NC(=O)[C@H](CC(N)=O)NC(=O)[C@@H](N)CO)C(=O)N[C@@H](CC(N)=O)C(=O)N[C@@H](C)C(=O)N[C@H](C(=O)N[C@@H](CCC(N)=O)C(=O)N[C@@H](Cc1c[nH]cn1)C(=O)N[C@@H](CC(N)=O)C(=O)O)C(C)C [LD2]
- Kd [1]: 1700 ± 300 nM
- Kd [2]: 1300 ± 300 nM

Molecule: MDDLDALLADLES [LD1]
- Kd [1]: 3100 ± 300 nM

Molecule: SATRELDELMASLSD [LD4]
- Kd ([3]; 25 nM FITC labelled peptide, 20 mM Tris pH7.5, 150 mM NaCl, 1mM TCEP, 22 °C, one-site binding model, 4 measurements, read-out: Apparent KD for FAT-WT): 2100 ± 400 nM

Molecule: SQLDSMLGSLQSD [LD5, synthetic peptide corresponding to the paxillin LD5 motif, FITC labelled N-terminally for anisotropy]
- binding to FAT-WT, in words [3]: no significant affinity

Molecule: SVESLLDELES [LD3, synthetic peptide corresponding to the paxillin LD3 motif, FITC labelled N-terminally for anisotropy]
- binding to FAT-WT, in words [3]: no significant affinity

Molecule: full-length vinculin (hVinculin1-1066) (from UniProt P18206-2 1-1066) (natural protein)
- Kd (paxillin LD2 peptide): 1300 nM

Molecule: vinculin tail domain (hVinculin891-1066) (from UniProt P18206-2 891-1066) (domain or fragment)
- percent of Vin-T in the ~ 2.5 S form at 100 µM [4]: 20%
- stoichiometry N [4]: 2
- Kd (paxillin LD2 peptide): 1700 nM
- Kd (paxillin LD1 peptide): 3100 nM

Molecule: SNLSELDRLLLELNAVQHN (also: FITC label, position not given here) [paxillin LD2 peptide]
- Kd [5]: 13300 nM
- Kd [6]: 3900 nM
- Kd [7]: 6000 nM
- Kd [8]: 6000 nM
- Kd [9]: 1800 nM

Molecule: B1
- stoichiometry N [10]: 1 FAT per LD2/4 (2:2)
- Kd (paxillin LD2 peptide): 2000 nM
- fold lower affinity than for LD2 and LD4 (paxillin LD1 peptide): 10 fold

B2: FAT-H14 (hFAK904-1052 with I936A, H1025A, K1032A) (domain or fragment)
chain: LQPQEISPPPTANLDRSNDKVYENVTGLVKAVAEMSSKIQPAPPEEYVPMVKEVGLALRTLLATVDETIPLLPASTHREIEMAQKLLNSDLGELINKMKLAQQYVMTSLQQEYKKQMLTAAAALAVDAANLLDVIDQARLKMLGQTRPH
- fold reduction of affinity against FAT-WT (paxillin LD2 peptide): 7 fold

Molecule: MDDLDALLADLES (also: FITC label, position not given here) [paxillin LD1 peptide]
- Kd [5]: 31400 nM
- Kd [7]: 19300 nM
- Kd [8]: 24700 nM
- Kd [9]: 18300 nM

B3: paxillin LD2/4 peptide (LD2 and LD4 motifs separated by a designed linker) (peptide)
chain: SNLSELDRLLLELNAVQHNGSGSGGSGGSGGSGGSGGSGGSGGSGGSATRELDELMASLSD
modifications: also: FITC label, position not given here
- Kd [11]: 130 ± 10 nM
- Kd [5]: 5800 nM
- Kd [6]: 1800 nM
- Kd [7]: 1400 nM
- Kd [8]: 1500 nM

Molecule: ATRELDELMASLS (also: FITC label, position not given here) [paxillin LD4 peptide]
- Kd [11]: ~2000 nM
- Kd [5]: 3600 nM
